Positions count from the first letter of the chain named.
T1: cystic fibrosis transmembrane conductance regulator (CFTR) inhibitory factor (Cif) (Pseudomonas aeruginosa, UniProt A0A0H2ZD27 25-319)
T1 construct: also called CIF protein; Cif-protein
T1 sequence: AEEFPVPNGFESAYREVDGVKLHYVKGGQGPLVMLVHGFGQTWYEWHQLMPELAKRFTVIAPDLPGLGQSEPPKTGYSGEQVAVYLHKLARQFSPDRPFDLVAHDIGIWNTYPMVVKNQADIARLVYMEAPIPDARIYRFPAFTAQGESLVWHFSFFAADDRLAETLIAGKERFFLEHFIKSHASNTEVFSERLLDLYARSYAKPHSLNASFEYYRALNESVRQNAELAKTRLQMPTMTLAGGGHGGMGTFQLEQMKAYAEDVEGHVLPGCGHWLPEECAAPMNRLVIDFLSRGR

B1: VHH CLONE 213 (VHH)
VHH: EVQLVESVGGLVQPGGSLRLSCVASGNIGDIYTMGWYRQAPGKQRELVATVGDGGLTNFVDSVKGRFTISRDKSKGTVSLEMNSLKPEDTAVYYCNADVRIGPTGLRVYWGQGTQVTVSS
notes: The entry includes the C-terminal 6xHis and HA tags
B2: VHH CLONE 320 (VHH)
VHH: DVQLQASGGGLVQPGGSLRLSCATSTSVFSITTLGWYRQAPGKQRELVASMKRGGDTNYADSVKGRFTISRDNARNTVFLQMNNLTTEDTAVYYCNAAILAYTGAVTNYWGQGTQVTVSS
notes: The entry includes the C-terminal 6xHis and HA tags; also called nanobody 320
B3: VHH CLONE 108 (VHH)
VHH: EVQLVESGGGLVQPGGSLRLSCEATGNFDDRGIGWFRQAPGKEREGIACITTRGRTHYAESVEGRFTISTDIANNAVYLQMNSLKPEDTAVYYCAKAIRLTTDRTQCVAFPGVSWGRGTQVTVSS
notes: as for B1
B4: VHH CLONE 220 (VHH)
VHH: B1 VHH with V8G, D30N, T50A, D53A, G55E, F59Y, R100S
notes: The entry includes the C-terminal 6xHis and HA tags; also called nanobody 220
B5: VHH CLONE 103 (VHH)
VHH: EVQLMESAGGLVRPGGSLRLSCVASGSIGDIYSMGWYRQAPGKQRELVATVGAGGLTDYGDSVLGRFTISRDKTKGTVSLEMNSLKPEDTAVYYCNADVSIGPTGLRVYWGQGTQVTVSS
notes: as for B1
B6: VHH CLONE 302 (VHH)
VHH: B1 VHH with E1Q, Q3K, V5Q, V8G
notes: as for B1
B7: VHH CLONE 116 (VHH)
VHH: EVQLVESGGGLVQPGGSLRLSCTASGSILKIYTMDWYRQAPGKQRDLVATVSSRGDTDYTDSVKGRFTISRDDAKNTAYLQMSSLKPEDTAVYYCNFYIQSRTAPFNDYWGQGTQVTVSS
notes: as for B1
B8: VHH CLONE 205 (VHH)
VHH: DVQLQASGGGLVQPGGSLRLSCAATGSTDRIAFMGWYRQAPGKLRELVAGITSDGRTNYADDVDVSGRFTISRDSAKNMVYLQMNSLKPEDTAVYYCNADITLAMGGLRVYWGQGTQVTVSS
notes: as for B1

target: T1, cystic fibrosis transmembrane …; assay: sandwich ELISA, upper graph: Cif in serial dilution (about 0.05-100 ng/mL) captured on anti-Cif pAb 0.3 ug/well, VHH 50 ng/well, anti-HA mAb detection; the concentration is that of Cif; sheet labels the value IC50, text calls it EC50
Procedure: (§1) 1). Immunoassay. A 96-well plate was coated with pAb at 3 μg/mL, 100 μL per well at RT for 1 h. The plate was blocked with 1% skimmed milk in PBST at RT for at least 2 h. Cif in PBS was loaded on the plate with increasing concentration and incubated for 1 h at RT. Following 5 times wash with PBST, VHH at 0.5 μg/mL in PBS, 100 μL per well (or 50 ng/well) was loaded. The plate was incubated for 1h at RT and then washed 5 times with wash buffer. Mouse anti-HA-HRP conjugate was added at 100 μl/well in a 1:3000 dilution as instructed by manufacturer. The plate was incubated for 1h at RT and washed 5 times. The plate was developed for 10 min with substrate solution added at 100 μl/well. The reaction was stopped by addition of 2M H₂SO₄ (50 μl/well) and absorbance was read at 450 nm. SigmaPlot 11.0 software was used for curve fitting and data analysis.
(§2) To evaluate produced recombinant antibodies, classical sandwich ELISA was performed using purified rabbit polyclonal anti-Cif antibodies as a capturing antibody (FIG. 3). […] Cif protein was loaded in a serial dilution range of 0.05-100 ng/mL and VHHs were added at 50 ng per well.

Going from B1 to B2, the EC50 falls from 0.011 µg/mL to 0.0061 µg/mL (1.8-fold).

For B3, the EC50 was 0.0098 µg/mL.

target: T1, cystic fibrosis transmembrane …; assay: sandwich ELISA, lower graph: Cif in serial dilution (about 0.05-100 ng/mL) captured on anti-Cif pAb 0.3 ug/well, VHH 50 ng/well, anti-HA mAb detection; the concentration is that of Cif; sheet labels the value IC50, text calls it EC50
Procedure: as §1, §2

B4 and B5 are within 1.5-fold of each other in EC50: 0.0211 µg/mL for the first, 0.0168 µg/mL for the second.

Going from B6 to B7, the EC50 rises from 0.0172 µg/mL to 0.0312 µg/mL (1.8-fold).

With B8 the EC50 was 0.0207 µg/mL.

From US20220169708A1 (University of California, published 2022)
